From publication doi:10.1101/2022.12.21.520923 (bioRxiv, 2022)
Changes are numbered by the printed parent chain.

T1: full-length GST-SNX5 phosphomimetic S226E mutant (human, UniProt Q9Y5X3 1-404, S226E)
T1 sequence: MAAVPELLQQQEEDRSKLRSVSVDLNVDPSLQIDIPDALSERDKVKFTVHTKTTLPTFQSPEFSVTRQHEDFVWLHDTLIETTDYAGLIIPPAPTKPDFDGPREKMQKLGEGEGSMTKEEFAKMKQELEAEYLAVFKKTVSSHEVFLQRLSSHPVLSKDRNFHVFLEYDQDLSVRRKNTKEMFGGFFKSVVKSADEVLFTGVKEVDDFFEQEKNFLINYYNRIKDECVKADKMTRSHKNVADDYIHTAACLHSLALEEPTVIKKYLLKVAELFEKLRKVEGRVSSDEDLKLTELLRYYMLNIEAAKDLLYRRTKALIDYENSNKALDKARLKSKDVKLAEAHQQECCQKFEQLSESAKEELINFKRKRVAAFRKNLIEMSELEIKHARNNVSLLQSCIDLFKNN

T2: full-length His-p115 (UniProt O60763 1-962)
T2 sequence: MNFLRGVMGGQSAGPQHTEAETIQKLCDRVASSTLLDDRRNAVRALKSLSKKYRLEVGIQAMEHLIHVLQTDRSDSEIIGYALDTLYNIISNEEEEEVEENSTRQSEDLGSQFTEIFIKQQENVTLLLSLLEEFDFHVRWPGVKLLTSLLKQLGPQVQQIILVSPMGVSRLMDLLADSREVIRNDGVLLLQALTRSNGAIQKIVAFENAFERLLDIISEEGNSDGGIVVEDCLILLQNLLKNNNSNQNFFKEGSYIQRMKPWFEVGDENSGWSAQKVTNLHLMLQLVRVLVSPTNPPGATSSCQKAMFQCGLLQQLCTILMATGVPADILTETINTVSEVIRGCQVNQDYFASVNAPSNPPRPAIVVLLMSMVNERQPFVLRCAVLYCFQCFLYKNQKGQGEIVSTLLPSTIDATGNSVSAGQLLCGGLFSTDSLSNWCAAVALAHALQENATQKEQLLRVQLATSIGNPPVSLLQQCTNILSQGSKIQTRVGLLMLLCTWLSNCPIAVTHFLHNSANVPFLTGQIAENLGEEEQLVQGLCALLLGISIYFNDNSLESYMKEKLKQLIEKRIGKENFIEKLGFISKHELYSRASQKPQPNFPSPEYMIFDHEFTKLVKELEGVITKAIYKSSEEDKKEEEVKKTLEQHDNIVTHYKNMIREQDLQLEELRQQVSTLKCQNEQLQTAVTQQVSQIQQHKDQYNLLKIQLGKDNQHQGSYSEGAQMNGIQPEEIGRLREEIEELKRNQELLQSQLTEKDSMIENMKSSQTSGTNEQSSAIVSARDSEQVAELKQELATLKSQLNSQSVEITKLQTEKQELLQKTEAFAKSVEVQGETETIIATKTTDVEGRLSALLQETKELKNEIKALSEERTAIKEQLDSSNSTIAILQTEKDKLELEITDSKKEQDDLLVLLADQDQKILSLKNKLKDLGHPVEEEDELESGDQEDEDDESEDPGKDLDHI

T3: His-tagged CHC22 Hub (human, UniProt P53675 1074-1640)
T3 sequence: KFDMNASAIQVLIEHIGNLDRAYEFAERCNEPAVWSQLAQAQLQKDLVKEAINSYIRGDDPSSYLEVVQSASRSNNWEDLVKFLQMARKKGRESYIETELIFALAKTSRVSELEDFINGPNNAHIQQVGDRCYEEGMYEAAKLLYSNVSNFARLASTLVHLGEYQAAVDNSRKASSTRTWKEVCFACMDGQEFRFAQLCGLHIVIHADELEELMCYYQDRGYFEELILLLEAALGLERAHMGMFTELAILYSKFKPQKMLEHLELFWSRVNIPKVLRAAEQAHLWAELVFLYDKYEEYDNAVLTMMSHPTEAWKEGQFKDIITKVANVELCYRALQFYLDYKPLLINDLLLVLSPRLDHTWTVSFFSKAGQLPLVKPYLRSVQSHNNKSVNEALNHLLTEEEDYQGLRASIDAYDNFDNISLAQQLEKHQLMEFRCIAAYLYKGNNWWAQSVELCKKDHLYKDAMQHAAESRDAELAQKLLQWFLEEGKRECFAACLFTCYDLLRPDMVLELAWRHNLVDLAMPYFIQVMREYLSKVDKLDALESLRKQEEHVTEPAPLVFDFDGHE

T4: His-SUMO CHC17 terminal domain (human, UniProt Q00610 1-364)
T4 sequence: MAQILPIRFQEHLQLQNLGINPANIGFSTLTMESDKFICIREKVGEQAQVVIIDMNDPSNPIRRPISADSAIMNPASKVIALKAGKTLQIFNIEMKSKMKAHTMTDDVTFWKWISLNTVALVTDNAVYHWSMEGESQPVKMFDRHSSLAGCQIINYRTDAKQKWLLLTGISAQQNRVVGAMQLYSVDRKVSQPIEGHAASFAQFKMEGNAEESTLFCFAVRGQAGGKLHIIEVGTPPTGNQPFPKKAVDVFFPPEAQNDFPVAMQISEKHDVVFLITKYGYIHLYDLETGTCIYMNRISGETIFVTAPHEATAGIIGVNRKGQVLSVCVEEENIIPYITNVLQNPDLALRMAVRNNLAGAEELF

T5: full-length GST-p115 (UniProt O60763 1-962)
T5 sequence: T2 sequence

B1: His-tagged CHC22 TxD (domain or fragment)
chain: WAQSVELCKKDHLYKDAMQHAAESRDAELAQKLLQWFLEEGKRECFAACLFTCYDLLRPDMVLELAWRHNLVDLAMPYFIQVMREYLSKVDKLDALESLRKQEEHVTEPAPLVFDFDGHE
B2: full-length GST-SNX5 (natural protein)
chain: T1 sequence with E226S
B3: GST-GGA2-HE (domain or fragment)
chain: GRVTFGNRVTSSLGDIPVSRVFQNPAGCMKTCPLIDLEVDNGPAQMGTVVPSLLHQDLAALGISDAPVTGMVSGQNCCEEKRNPSSSTLPGGGVQNPSADRNLLDLLSAQPAPCPLNYVSQKSVPKEVPPGTKSSPGWSWEAGPLAPSPSSQNTPLAQVFVPLESVKPSSLPPLIVYDRNGFRILLHFSQTGAPGHPEVQVLLLTMMSTAPQPVWDIMFQVAVPKSMRVKLQPASSSKLPAFSPLMPPAVISQMLLLDNPHKEPIRLRYKLTFNQGGQPFSEVGEVKDFPDLAVLGAA
B4: His-SUMO-tagged CHC22 terminal domain (domain or fragment)
chain: MAQILPVRFQEHFQLQNLGINPANIGFSTLTMESDKFICIREKVGEQAQVTIIDMSDPMAPIRRPISAESAIMNPASKVIALKAGKTLQIFNIEMKSKMKAHTMAEEVIFWKWVSVNTVALVTETAVYHWSMEGDSQPMKMFDRHTSLVGCQVIHYRTDEYQKWLLLVGISAQQNRVVGAMQLYSVDRKVSQPIEGHAAAFAEFKMEGNAKPATLFCFAVRNPTGGKLHIIEVGQPAAGNQPFVKKAVDVFFPPEAQNDFPVAMQIGAKHGVIYLITKYGYLHLYDLESGVCICMNRISADTIFVTAPHKPTSGIIGVNKKGQVLSVCVEEDNIVNYATNVLQNPDLGLRLAVRSNLAGAEKLF

Columns and labels:
Test in all cases: pull-down
[1] = molecular target: T1, full-length GST-SNX5 phosphomimetic …
[2] = molecular target: B2
[3] = molecular target: T2, full-length His-p115
[4] = molecular target: full-length His-tagged SNX1 (UniProt Q13596 1-522)
full-length His-tagged SNX1, sequence (Q13596 whole entry): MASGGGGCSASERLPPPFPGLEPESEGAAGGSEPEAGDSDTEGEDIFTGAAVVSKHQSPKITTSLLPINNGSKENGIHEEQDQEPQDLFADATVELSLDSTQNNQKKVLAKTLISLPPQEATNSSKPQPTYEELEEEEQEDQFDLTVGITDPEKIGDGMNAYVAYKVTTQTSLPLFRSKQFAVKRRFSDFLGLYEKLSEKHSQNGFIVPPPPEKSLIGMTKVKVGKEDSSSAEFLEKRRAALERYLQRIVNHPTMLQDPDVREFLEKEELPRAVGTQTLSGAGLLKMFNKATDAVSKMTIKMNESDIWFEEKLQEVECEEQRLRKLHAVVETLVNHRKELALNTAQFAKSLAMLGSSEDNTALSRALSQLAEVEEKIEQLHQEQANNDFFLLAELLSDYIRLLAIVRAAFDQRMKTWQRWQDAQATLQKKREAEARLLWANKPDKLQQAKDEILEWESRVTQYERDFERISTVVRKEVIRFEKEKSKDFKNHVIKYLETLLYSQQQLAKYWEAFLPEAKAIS

[5] = molecular target: T3, His-tagged CHC22 Hub
[6] = molecular target: T4, His-SUMO CHC17 terminal domain
[7] = molecular target: B4
[8] = molecular target: T5, full-length GST-p115

Binder: B1
- binding result [1]: binds
- binding result [2]: binds

Binder: B2
- binding result [3]: binds
- binding result [4]: binds
- binding result [5]: binds

Binder: B3
- binding result [6]: binds
- binding result [7]: binds

Binder: B4
- binding result [8]: binds
